The chains are these.
B1: NETO1 (parent)
chain: GFSPIIGRFCGQQNPPVIKSSGRF
B2: TRAF3IP2 (parent)
chain: APWNYHYHCPGSPDHQVPYGHDYP
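Also: lentivirally expressed fusions sorted by FACS into six bins by GFP to DsRed ratio, PSI derived from sequencing read proportions per bin multiplied by bin number.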

One data set covers variants of B1. Kind of data set: protein stability index of a GFP-peptide fusion (GPS, HEK-293T) (PSI 1-6); higher = more stable. Particulars: c terminus: a fixed tail appended.
Take GFSPIIGRFCGQQNPPVIKSSTRF [G22T]: the protein stability index stood at 2.11.
Same read-out and setting: the result for GFSPIIGRFCGQQGPPVIKSSGRF [N14G] reads 2.19; that for GFSPIIGRFCGQQSPPVIKSSGRF [N14S], 2.35.
Same read-out and setting: the figure for GFSPIIGRFCGQQNPPVIKFSGRF [S20F] is 2.26.
Take GFSPIIGRFCGWQNPPVIKSSGRF [Q12W]: the protein stability index was found to be 1.72.
Still for that read-out and setting: the result for GFSPIIGRFCGEQNPPVIKSSGRF [Q12E] reads 2.35.
Regarding GFSPIIGRFCGSQNPPVIKSSGRF [Q12S], the protein stability index turned out to be 2.03.
Consider GFSPIIGRFCGQQNPPVIKSSGRY [F24Y], for which the protein stability index stood at 2.4.
On to KFSPIIGRFCGQQNPPVIKSSGRF [G1K], for which the protein stability index worked out at 2.18.
For QFSPIIGRFCGQQNPPVIKSSGRF [G1Q], the protein stability index came to 2.03.
Consider GFSPIIGRFDGQQNPPVIKSSGRF [C10D], for which the protein stability index stood at 2.71.
GFSPIIGRFQGQQNPPVIKSSGRF [C10Q]: the protein stability index is 2.4.
Same read-out and setting: the figure for GFSPIIGRFPGQQNPPVIKSSGRF [C10P] is 3.47.
Same read-out and setting: the figure for GFSPIIGRFYGQQNPPVIKSSGRF [C10Y] is 2.42.
Still for that read-out and setting: the figure for GFSPIIGRFCGQQNPDVIKSSGRF [P16D] is 2.1.
As to GFSPIIGRFCGQQNPTVIKSSGRF [P16T], the protein stability index is 2.23.
For GFSPIIGRFCGQQNPCVIKSSGRF [P16C], the protein stability index was determined as 2.02.
For GFSPIIGRFCGQQNPSVIKSSGRF [P16S], the protein stability index is 2.05.
Same read-out and setting: the figure for GFSPIIGRFCGQQNPMVIKSSGRF [P16M] is 2.16; for GFSPIIERFCGQQNPPVIKSSGRF [G7E] it is 2.39.
On the same count and under the same terms, the result for GFSPIIWRFCGQQNPPVIKSSGRF [G7W] reads 1.42.
The same measure, in the same setting: the result for GFSPIIRRFCGQQNPPVIKSSGRF [G7R] reads 2.25.
As for GKSPIIGRFCGQQNPPVIKSSGRF [F2K], the protein stability index worked out at 2.28.
On the same count and under the same terms, the figure for GDSPIIGRFCGQQNPPVIKSSGRF [F2D] is 2.68.
For GFSPIWGRFCGQQNPPVIKSSGRF [I6W], the protein stability index turned out to be 2.68.
Same read-out and setting: the result for GFSPITGRFCGQQNPPVIKSSGRF [I6T] reads 2.39; that for GFSPICGRFCGQQNPPVIKSSGRF [I6C], 2.11.
Same read-out and setting: the result for GFSPILGRFCGQQNPPVIKSSGRF [I6L] reads 2.55; that for GFSPIIGRFCGQQNPPWIKSSGRF [V17W], 2.42.
On to GFSPIIGRFCGQQNPPSIKSSGRF [V17S], for which the protein stability index came out at 2.3.
Turning to GFSDIIGRFCGQQNPPVIKSSGRF [P4D], the protein stability index was determined as 1.57.
The same measure, in the same setting: the result for GFSPIIGRFCGQQNIPVIKSSGRF [P15I] reads 2.1; that for GFSPIIGRFCGQQNDPVIKSSGRF [P15D], 2.4.
Still for that read-out and setting: the figure for GFSPIIGCFCGQQNPPVIKSSGRF [R8C] is 1.61; for GFSPIIGSFCGQQNPPVIKSSGRF [R8S] it is 2.05; for GFSPIIGRFCGQQNPPVIKSSGCF [R23C] it is 1.44.
The same measure, in the same setting: the result for GFSPIIGRFCGQQNPPVIKSSGFF [R23F] reads 1.89; that for GFSPIIGRFCGQQNPPVIKSSGTF [R23T], 1.64.
In the case of GFSPWIGRFCGQQNPPVIKSSGRF [I5W], the protein stability index stood at 1.42.
Same read-out and setting: the figure for GFSPMIGRFCGQQNPPVIKSSGRF [I5M] is 2.19.
GFSPIIGRFCGQQNPPVIYSSGRF [K19Y]: the protein stability index was 1.91.
For GFSPIIGRFCGQQNPPVIHSSGRF [K19H], the protein stability index is 1.64.
The same measure, in the same setting: the result for GFSPIIGRFCGQQNPPVIKSIGRF [S21I] reads 1.57.
Turning to GFSPIIGRFCGQQNPPVHKSSGRF [I18H], the protein stability index came to 1.76.
Same read-out and setting: the result for GFSPIIGRFCGQQNPPVQKSSGRF [I18Q] reads 2.78; that for GFSPIIGRFCLQQNPPVIKSSGRF [G11L], 2.31.
With GFSPIIGRFCSQQNPPVIKSSGRF [G11S], the protein stability index is 2.38.
As to GFSPIIGRFCFQQNPPVIKSSGRF [G11F], the protein stability index was 2.03.
Turning to GFSPIIGRFCGQPNPPVIKSSGRF [Q13P], the protein stability index was 2.31.
The same measure, in the same setting: the figure for GFSPIIGRFCGQDNPPVIKSSGRF [Q13D] is 1.96.
Turning to GFSPIIGRFCGQWNPPVIKSSGRF [Q13W], the protein stability index was 1.61.

The next data set covers variants of B2. Described as above. Particulars: c terminus: a fixed tail appended.
In the case of APWNYHYHAPGSPDHQVPYGHDYP [C9A], the protein stability index amounted to 2.08.
Turning to APWNYHYHCPGSPDHQVIYGHDYP [P18I], the protein stability index amounted to 1.93.
Take APWNYHYHCPGSPDHQVYYGHDYP [P18Y]: the protein stability index was 2.16.
For the variant APWNYHHHCPGSPDHQVPYGHDYP [Y7H], the protein stability index was determined as 3.42.
As for APWNYHYHCPGSPDHQVPYHHDYP [G20H], the protein stability index stood at 2.35.
On the same count and under the same terms, the result for APWNYHYHCPGSPDHQVPYGHYYP [D22Y] reads 2.08.
On the same count and under the same terms, the result for APWNYHYHCPGSPDHQVPYGHQYP [D22Q] reads 2.16; that for PPWNYHYHCPGSPDHQVPYGHDYP [A1P], 2.71; that for FPWNYHYHCPGSPDHQVPYGHDYP [A1F], 2.12.
Still for that read-out and setting: the figure for DPWNYHYHCPGSPDHQVPYGHDYP [A1D] is 3.33; for QPWNYHYHCPGSPDHQVPYGHDYP [A1Q] it is 1.53; for CPWNYHYHCPGSPDHQVPYGHDYP [A1C] it is 2.72.
With APWNYHYHCLGSPDHQVPYGHDYP [P10L], the protein stability index worked out at 1.54.
APWNYHYHCPGSPYHQVPYGHDYP [D14Y]: the protein stability index stood at 1.53.
Same read-out and setting: the result for APWNYHYQCPGSPDHQVPYGHDYP [H8Q] reads 2.82; that for APWNYHYLCPGSPDHQVPYGHDYP [H8L], 2.2.
As to APWNYHYECPGSPDHQVPYGHDYP [H8E], the protein stability index turned out to be 2.25.
For APWNYHYFCPGSPDHQVPYGHDYP [H8F], the protein stability index was determined as 2.22.
Same read-out and setting: the result for APWNYHYNCPGSPDHQVPYGHDYP [H8N] reads 2.1; that for APWNWHYHCPGSPDHQVPYGHDYP [Y5W], 2.91.
For APWNTHYHCPGSPDHQVPYGHDYP [Y5T], the protein stability index stood at 3.52.
Same read-out and setting: the result for APWNCHYHCPGSPDHQVPYGHDYP [Y5C] reads 3.43; that for APWNYHYHCPTSPDHQVPYGHDYP [G11T], 2.18; that for APWNYHYHCPGSPDHIVPYGHDYP [Q16I], 2.58.
In the case of APWNYHYHCPGGPDHQVPYGHDYP [S12G], the protein stability index is 2.36.
The same measure, in the same setting: the result for APWNYHYHCPGLPDHQVPYGHDYP [S12L] reads 2.47.
Still for that read-out and setting: the result for APWNYHYHCPGKPDHQVPYGHDYP [S12K] reads 2.21; that for APWKYHYHCPGSPDHQVPYGHDYP [N4K], 2.24.
Regarding APWNYHYHCPGSPDHQIPYGHDYP [V17I], the protein stability index worked out at 2.15.
Same read-out and setting: the result for APWNYHYHCPGSPDHQGPYGHDYP [V17G] reads 2.68.
Same read-out and setting: the figure for APHNYHYHCPGSPDHQVPYGHDYP [W3H] is 3.51; for APWNYHYHCPGSPDHQVPSGHDYP [Y19S] it is 2.44; for APWNYHYHCPGSPDHQVPRGHDYP [Y19R] it is 1.99.
On the same count and under the same terms, the figure for APWNYNYHCPGSPDHQVPYGHDYP [H6N] is 3.15.
For the variant APWNYAYHCPGSPDHQVPYGHDYP [H6A], the protein stability index came out at 2.73.
Consider APWNYVYHCPGSPDHQVPYGHDYP [H6V], for which the protein stability index amounted to 1.94.
On the same count and under the same terms, the result for APWNYHYHCPGSPDHQVPYGHDMP [Y23M] reads 2.25; that for APWNYHYHCPGSNDHQVPYGHDYP [P13N], 1.83; that for APWNYHYHCPGSIDHQVPYGHDYP [P13I], 1.87.
For the variant ATWNYHYHCPGSPDHQVPYGHDYP [P2T], the protein stability index came out at 2.21.
For ADWNYHYHCPGSPDHQVPYGHDYP [P2D], the protein stability index turned out to be 3.38.
Same read-out and setting: the figure for AEWNYHYHCPGSPDHQVPYGHDYP [P2E] is 3.07; for AFWNYHYHCPGSPDHQVPYGHDYP [P2F] it is 1.95.

The values are drawn from the supplement of paper PMC10567573.
